Source: patent US20160185856A1 (INSERM INSTITUT NATIONAL DE LA SANTE ET DE LA RECHERCHE …, published 2016)

Assays:
[1] = target: T1, CLDN8 (human, UniProt P56748 1-225); assay: FACS on SW480 cells transiently transfected with human CLDN8
T1 construct: whole, on cells; also called human CLDN8
T1 sequence (looked up): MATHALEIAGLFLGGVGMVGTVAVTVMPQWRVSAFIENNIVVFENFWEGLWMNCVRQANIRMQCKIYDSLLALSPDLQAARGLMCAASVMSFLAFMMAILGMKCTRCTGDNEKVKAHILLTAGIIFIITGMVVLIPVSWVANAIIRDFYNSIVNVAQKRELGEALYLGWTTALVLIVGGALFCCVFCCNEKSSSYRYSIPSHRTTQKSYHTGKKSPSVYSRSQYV
Method: (§1) A). Cell lysates derived from SW480 or CLDN-transfected SW480 were tested by Western-Blotting. B) FACS histograms of the binding 6F6C3 mAb (10 μg/mL-gray histogram) or control without 6F6C3 (dashed histogram) or irrelevant antibody 35A7 (black histogram) to the different CLDNs.
(§2) After transitory tranfection on SW480 cells of human cDNA clone of CLDN8 (sc320974, Origene technologies, USA) and murine cDNA clone of CLDN1 (IRAVp968A105D, LifeScience), we analysed by FACs cross-reactivity of 6F6C3 mAb.

[2] = target: T2, CLDN7 (UniProt O95471 1-211, limits assumed); assay: FACS on parental SW480 cells, which express CLDN7
T2 construct: whole, on cells; It is endogenous in the human SW480 cell line
T2 sequence (looked up): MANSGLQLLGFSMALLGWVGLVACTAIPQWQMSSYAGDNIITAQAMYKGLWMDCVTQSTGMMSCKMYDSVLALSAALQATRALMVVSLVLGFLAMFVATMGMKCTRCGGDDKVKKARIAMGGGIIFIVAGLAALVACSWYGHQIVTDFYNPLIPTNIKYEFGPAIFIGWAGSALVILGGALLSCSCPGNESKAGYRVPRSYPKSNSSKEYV
Method: as §1, §2

[3] = target: T3, murine CLDN1 (murine, UniProt O88551 1-211); assay: FACS on SW480 cells transiently transfected with murine CLDN1
T3 construct: whole, on cells; also called mCLDN1
T3 sequence (looked up): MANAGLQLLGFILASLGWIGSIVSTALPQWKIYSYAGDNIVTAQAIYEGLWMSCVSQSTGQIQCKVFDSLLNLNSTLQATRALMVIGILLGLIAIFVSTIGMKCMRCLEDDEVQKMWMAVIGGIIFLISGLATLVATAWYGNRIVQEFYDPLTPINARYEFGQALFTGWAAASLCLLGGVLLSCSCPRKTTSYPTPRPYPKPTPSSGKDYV
Method: as §1, §2

- binding result [1]: no binding (tested: 10 µg/mL)
- binding result [2]: no binding (tested: 10 µg/mL)
- binding result [3]: no binding (tested: 10 µg/mL)
B1: 6F6C3 mAb (antibody, V domains shown)
VH: QIQLVQSGPELKKPGETVRISCKASGYTFTTSGMQWLQKMPGKGLKWIGWINTHFGEPKYAEDFKGRFAFSLETSASTAYLQISNLKNEDTATYFCAGAGYYGSRYFDVWGAGTTVTVSS
VL: DIVMTQSQKFMSTSVGDRVSITCKASQNVGTAVAWYQQKPGQSPKLLIYSASNRYTGVPDRFTGSGSGTDFTLTISNMQSEDLADYFCQQYSSYPLTFGGGTKLEIK
notes: Murine hybridoma antibody; Used as purified mAb or as hybridoma supernatant; also called mAb6F6C3; murine anti-CLDN1 antibody (6F6C3)
